Data published in patent US20090149389A1 (PURDUE RESEARCH FOUNDATION, published 2009).

How the values were obtained:
Test in all cases: cell-based or functional assay
CDKI/cyclinB (h) = CDKI/cyclinB (h) (human (h), UniProt P06493 1-297)
Flt3 (h) = molecular target: T1, Flt3 (h) (human (h), UniProt P36888 564-993, limits assumed)
T1 sequence (looked up): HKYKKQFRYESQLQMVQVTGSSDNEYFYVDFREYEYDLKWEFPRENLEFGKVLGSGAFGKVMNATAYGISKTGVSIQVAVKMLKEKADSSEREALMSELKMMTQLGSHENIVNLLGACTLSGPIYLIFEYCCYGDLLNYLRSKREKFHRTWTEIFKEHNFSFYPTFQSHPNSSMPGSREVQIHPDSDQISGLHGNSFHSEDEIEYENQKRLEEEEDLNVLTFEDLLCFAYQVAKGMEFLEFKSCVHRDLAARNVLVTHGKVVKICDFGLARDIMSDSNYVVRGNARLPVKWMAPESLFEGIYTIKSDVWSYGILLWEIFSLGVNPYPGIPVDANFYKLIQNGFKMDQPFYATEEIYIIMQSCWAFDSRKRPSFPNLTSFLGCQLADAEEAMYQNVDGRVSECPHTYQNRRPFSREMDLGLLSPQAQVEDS

IGF-IR (h) = IGF-IR (h) (human (h), UniProt P08069 959-1367, limits assumed)
IRAK4 (h) = molecular target: T2, IRAK4 (h) (human (h), UniProt Q9NWZ3 1-460, limits assumed)
T2 sequence (looked up): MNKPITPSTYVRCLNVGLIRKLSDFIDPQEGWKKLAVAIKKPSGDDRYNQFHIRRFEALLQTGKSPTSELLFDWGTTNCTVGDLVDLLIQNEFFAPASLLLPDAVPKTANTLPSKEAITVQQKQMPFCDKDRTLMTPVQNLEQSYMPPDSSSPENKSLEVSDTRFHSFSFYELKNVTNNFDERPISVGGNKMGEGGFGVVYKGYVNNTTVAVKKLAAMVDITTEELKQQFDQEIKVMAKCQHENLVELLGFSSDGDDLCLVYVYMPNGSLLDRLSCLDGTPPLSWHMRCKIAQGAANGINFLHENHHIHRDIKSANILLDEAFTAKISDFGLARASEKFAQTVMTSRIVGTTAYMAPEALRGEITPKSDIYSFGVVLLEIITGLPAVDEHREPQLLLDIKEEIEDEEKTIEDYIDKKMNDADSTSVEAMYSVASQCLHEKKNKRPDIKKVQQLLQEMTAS

JNK1α1 (h) = JNK1α1 (h) (human (h), UniProt P45983-2 1-384)
Lck (h) = Lck (h) (human (h), UniProt P06239 1-509)
MAPKAP-K2 (h) = MAPKAP-K2 (h) (human (h), UniProt P49137 46-400, limits assumed)
MKK4 (m) = molecular target: T3, MKK4 (m) (mouse (m), UniProt P47809 35-397, limits assumed)
T3 sequence (looked up): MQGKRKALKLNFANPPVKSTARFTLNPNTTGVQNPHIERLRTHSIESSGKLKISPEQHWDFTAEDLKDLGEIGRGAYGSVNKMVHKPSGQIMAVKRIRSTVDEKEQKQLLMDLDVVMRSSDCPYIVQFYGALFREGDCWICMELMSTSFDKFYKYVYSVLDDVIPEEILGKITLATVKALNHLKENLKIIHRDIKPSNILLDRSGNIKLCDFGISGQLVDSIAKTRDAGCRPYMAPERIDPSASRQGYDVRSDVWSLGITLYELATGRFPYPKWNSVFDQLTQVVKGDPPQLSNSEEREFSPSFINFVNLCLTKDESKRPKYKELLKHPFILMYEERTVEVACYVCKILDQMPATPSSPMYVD

MKK6 (h) = molecular target: T4, MKK6 (h) (human (h), UniProt P52564 1-334, limits assumed)
T4 sequence (looked up): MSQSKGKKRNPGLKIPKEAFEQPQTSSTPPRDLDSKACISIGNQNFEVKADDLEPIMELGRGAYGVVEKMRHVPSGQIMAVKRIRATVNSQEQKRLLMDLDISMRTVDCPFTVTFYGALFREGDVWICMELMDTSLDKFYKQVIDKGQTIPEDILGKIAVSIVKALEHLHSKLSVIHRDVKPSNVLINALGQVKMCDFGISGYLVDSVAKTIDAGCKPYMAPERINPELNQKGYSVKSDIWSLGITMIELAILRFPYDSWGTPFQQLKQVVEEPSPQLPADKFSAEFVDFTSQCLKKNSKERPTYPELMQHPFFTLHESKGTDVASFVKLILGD

MLCK (h) = MLCK (h) (human (h))
PDGFRβ (h) = PDGFRβ (h) (human (h), UniProt P09619 558-1106, limits assumed)
PKB β (h) = PKB β (h) (human (h), UniProt P31751 1-481, limits assumed)
PRAK = molecular target: T5, PRAK (UniProt Q8IW41 1-473, limits assumed)
T5 sequence (looked up): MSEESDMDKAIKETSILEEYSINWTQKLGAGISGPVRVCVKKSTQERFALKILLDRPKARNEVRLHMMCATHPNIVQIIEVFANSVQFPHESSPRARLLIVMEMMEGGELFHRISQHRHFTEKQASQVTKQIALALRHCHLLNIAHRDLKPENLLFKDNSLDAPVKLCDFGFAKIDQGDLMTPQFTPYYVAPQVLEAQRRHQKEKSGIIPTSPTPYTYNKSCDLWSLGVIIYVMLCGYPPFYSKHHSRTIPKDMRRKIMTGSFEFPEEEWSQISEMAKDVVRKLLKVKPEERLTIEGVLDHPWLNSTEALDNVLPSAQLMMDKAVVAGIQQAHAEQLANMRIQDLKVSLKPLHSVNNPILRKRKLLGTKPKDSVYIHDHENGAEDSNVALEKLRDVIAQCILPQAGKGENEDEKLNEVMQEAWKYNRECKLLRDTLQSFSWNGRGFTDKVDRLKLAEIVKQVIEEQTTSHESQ

Src(1-530) (h) = Src(1-530) (h) (human (h), UniProt P12931 1-530)

IGF-IR (h), sequence (P08069 959-1367 limits assumed): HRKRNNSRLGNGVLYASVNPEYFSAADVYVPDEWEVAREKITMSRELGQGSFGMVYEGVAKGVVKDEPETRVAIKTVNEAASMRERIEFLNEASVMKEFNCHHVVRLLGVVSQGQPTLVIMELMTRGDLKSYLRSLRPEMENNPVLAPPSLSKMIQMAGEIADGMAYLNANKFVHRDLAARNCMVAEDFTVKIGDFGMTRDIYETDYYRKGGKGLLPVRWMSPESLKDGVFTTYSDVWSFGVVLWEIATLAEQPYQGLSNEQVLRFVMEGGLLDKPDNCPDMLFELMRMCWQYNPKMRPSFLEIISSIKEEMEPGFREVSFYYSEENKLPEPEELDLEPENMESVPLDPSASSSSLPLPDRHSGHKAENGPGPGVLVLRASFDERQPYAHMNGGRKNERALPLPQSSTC
JNK1α1 (h), sequence (P45983 other isoform, or with tags, fused parts or gaps limits assumed): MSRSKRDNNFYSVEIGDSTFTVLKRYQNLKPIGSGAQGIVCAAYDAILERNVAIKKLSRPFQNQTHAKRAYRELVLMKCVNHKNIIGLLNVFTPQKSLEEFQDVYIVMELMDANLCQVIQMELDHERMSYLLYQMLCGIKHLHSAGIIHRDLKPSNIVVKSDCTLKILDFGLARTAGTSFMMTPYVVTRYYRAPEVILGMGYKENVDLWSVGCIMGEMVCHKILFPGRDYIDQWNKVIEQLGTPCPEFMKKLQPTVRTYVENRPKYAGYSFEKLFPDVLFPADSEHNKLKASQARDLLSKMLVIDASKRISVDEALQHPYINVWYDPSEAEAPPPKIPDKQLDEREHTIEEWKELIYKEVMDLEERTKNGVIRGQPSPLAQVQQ
CDKI/cyclinB (h), sequence (P06493 whole entry): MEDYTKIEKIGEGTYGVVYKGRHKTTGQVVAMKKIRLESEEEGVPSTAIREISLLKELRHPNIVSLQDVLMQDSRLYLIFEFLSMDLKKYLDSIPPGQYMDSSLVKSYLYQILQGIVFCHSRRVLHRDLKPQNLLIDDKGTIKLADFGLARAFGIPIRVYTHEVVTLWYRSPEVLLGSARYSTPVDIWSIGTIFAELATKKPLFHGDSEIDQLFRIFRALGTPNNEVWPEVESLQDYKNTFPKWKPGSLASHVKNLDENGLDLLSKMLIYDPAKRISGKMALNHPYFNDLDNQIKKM
Lck (h), sequence (P06239 whole entry): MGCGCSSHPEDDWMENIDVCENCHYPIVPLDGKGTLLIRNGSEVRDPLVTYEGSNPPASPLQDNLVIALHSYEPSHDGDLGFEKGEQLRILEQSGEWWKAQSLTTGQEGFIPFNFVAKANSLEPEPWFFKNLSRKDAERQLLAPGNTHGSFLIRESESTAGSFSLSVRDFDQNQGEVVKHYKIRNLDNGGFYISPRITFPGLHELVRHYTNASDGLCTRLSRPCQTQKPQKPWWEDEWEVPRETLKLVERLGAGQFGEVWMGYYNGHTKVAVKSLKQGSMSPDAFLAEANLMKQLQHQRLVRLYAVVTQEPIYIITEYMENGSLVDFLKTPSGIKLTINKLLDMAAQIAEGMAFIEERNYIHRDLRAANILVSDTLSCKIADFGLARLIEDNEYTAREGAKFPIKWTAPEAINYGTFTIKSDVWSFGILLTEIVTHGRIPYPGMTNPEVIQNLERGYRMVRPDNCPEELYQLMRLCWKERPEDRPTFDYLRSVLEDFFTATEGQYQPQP
PDGFRβ (h), sequence (P09619 558-1106 limits assumed): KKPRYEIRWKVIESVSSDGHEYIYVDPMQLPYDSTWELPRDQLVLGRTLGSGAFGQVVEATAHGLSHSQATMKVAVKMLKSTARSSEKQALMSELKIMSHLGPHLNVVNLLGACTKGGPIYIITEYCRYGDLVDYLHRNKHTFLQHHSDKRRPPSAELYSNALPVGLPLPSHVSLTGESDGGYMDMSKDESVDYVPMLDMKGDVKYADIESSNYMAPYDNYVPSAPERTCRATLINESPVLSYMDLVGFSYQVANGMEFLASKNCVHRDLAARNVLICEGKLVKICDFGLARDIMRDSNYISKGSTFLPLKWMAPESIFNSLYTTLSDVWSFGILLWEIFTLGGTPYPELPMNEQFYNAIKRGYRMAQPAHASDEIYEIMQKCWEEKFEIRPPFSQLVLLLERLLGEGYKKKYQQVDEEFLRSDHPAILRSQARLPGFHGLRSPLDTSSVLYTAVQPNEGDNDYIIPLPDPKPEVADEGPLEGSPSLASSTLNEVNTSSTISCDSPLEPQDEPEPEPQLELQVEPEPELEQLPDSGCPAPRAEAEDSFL
PKB β (h), sequence (P31751 whole entry): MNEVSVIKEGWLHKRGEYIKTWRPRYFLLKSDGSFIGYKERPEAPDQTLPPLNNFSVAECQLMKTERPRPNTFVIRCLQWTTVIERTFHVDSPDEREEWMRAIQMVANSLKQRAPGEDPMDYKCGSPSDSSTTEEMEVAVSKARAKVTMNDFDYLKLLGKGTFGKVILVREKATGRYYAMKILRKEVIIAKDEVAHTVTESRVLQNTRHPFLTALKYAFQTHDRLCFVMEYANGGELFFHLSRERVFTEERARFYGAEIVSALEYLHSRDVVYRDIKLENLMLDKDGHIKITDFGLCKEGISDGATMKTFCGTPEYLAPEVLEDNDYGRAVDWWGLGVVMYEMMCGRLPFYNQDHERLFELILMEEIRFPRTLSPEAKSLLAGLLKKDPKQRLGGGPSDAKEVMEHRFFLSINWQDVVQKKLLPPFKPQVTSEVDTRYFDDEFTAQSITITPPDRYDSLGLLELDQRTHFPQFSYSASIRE
MAPKAP-K2 (h), sequence (P49137 46-400 limits assumed): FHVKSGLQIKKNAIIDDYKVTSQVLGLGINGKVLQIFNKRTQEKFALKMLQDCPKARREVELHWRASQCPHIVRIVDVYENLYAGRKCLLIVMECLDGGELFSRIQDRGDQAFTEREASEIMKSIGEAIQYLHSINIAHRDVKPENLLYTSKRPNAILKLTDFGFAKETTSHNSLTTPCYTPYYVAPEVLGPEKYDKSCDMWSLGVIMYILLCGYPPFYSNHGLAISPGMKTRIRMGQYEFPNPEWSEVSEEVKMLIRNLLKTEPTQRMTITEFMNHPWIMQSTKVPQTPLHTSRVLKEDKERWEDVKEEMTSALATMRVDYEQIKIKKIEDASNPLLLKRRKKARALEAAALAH

B1: KAFAKLAARLYRKALARQLGVAA (peptide)
peptide: KAFAKLAARLYRKALARQLGVAA
Profile-1 @ = 100 µm (kinase profiler assay) (CDKI/cyclinB (h)): 55
Profile-1 @ = 100 µm (kinase profiler assay) (Flt3 (h)): 20
Profile-1 @ = 100 µm (kinase profiler assay) (IGF-IR (h)): 76
Profile-1 @ = 100 µm (kinase profiler assay) (IRAK4 (h)): 16
Profile-1 @ = 100 µm (kinase profiler assay) (JNK1α1 (h)): 92
Profile-1 @ = 100 µm (kinase profiler assay) (Lck (h)): 847
Profile-1 @ = 100 µm (kinase profiler assay) (MAPKAP-K2 (h)): 8
Profile-1 @ = 100 µm (kinase profiler assay) (MKK4 (m)): 114
Profile-1 @ = 100 µm (kinase profiler assay) (MKK6 (h)): 48
Profile-1 @ = 100 µm (kinase profiler assay) (MLCK (h)): 2
Profile-1 @ = 100 µm (kinase profiler assay) (PDGFRβ (h)): 66
Profile-1 @ = 100 µm (kinase profiler assay) (PKB β (h)): 28
Profile-1 @ = 100 µm (kinase profiler assay) (PRAK): 148
Profile-1 @ = 100 µm (kinase profiler assay) (Src(1-530) (h)): 3
